T1: GST-fusion protein containing amino acids 696-902 of human cdc4
T1 sequence: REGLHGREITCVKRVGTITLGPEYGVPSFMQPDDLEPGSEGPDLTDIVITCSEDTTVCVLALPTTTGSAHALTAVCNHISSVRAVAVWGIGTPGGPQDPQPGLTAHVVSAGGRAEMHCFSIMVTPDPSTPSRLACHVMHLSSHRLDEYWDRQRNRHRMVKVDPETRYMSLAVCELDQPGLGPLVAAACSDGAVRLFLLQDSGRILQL

B1: mouse cdc4 (clone from a mouse cDNA-VP16 fusion library; 486 base pair fragment) (other, not shown: large carriers)
chain: TFTHEAPNQRRRLILCSAATDGSLAFWDLTTAMDKGSTTLELPAHPGLPYQMGTPSMTVQAHSCGVNSLHTLPTPEGHHLVASGSEDGSLHVFTLAVKMPEPEEADGEAELVPQLCVLEEYSVPCAHAAHVTGVKILSPKLMVSASIDQRLTFWRLGQGEPP
notes: VP16 is placed first from knowledge of such libraries; also called mu-cdc4; mcdc4

Assays:
[1] = test system: T1, GST-fusion protein containing amino acids 696-902 of human cdc4
[2] = target: T2, human p19 skp1, expressed as a LexA fusion protein from vector pBTM116 (human, UniProt P63208 1-163, limits assumed); assay: yeast two-hybrid (LexA-skp1 bait, mouse cDNA-VP16 library)
T2 construct: Bait of the yeast two-hybrid screen in S. cerevisiae L40; also called human skp1
Description: A full length cDNA encoding a mouse homolog of yeast cdc4 protein was cloned through its ability to specifically interact with human p19 skp1 in a yeast two hybrid system. Briefly, human skp1 was cloned into the vector pBTM116 for expression as a LexA fusion protein. This construct was transformed into S. Cerevisiae strain L40 (MATa his3 200 trp1-900 leu2-3,112 ade LYS2::lexAop)₄-HIS3 URA3::(lexAop)₈-lacZ GAL4). Skp1 interacting clones were selected in the presence of 1 mM 3-aminotriazole after transformation of a mouse cDNA-VP16 fusion library. Specificity of the interacting clones was assessed with the D. Melanogaster daughterless gene.

T2 sequence (P63208 whole entry, the tested form may be a part): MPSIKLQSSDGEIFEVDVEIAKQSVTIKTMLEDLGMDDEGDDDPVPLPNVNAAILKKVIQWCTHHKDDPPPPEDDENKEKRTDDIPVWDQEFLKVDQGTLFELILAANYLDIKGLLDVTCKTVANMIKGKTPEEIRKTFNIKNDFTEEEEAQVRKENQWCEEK

Molecule | in vitro ubiquitination reaction (E1, E2, biotinylated ubiquitin; streptavidin-HRP after non-reducing SDS-PAGE) [1] | binding result [2]
UBC2 | though to a lesser extent, UBC2 | –
UBC4 | cdc4 polypeptide was found to be ubiquitinated by UBC4 | –
B1 | – | binds
